Target: RGD-recognizing receptors of monocytes
Assay: cell-based or functional assay

- decrease in long-duration monocyte-platelet interactions under flow: 44%
B1: Small RGD peptides containing the amino-acid sequence Arg-Gly-Asp-Ser (peptide)
peptide: RGDS
